Experimental findings from patent US20230047413A1 (Janssen / Centocor, published 2023) are described below.

Test [1] concerns the target T1, tau phospho-peptide of the direct ELISA of Example 11.
T1 construct: also called pT217 peptide; pT212/pT217 peptide
Put plainly: direct ELISA on plate-coated tau phospho-peptide, Fabs. As for the experimental part: Binding to tau phospho-peptide was analysed by ELISA where peptide (10 ng/mL) was directly coated to the plate overnight. […] After incubation with antibodies, plates were washed and 50 μL per well of HRPO labelled anti-Fab antibody (Jackson Immunoresearch laboratories) (diluted 1:10000 in blocking buffer). After another washing step detection was performed with “One step” TMB (Thermo Scientific) according to the manufacturers' instructions. Plates were analysed in EnVision® 2102 Multilabel Reader (Perkin Elmer, Waltham, Mass., USA). Binding curves were generated using GraphPad Prism7.0 software.
In general terms: ELISA stands for enzyme-linked immunosorbent assay.

Test [2] concerns the target T2, Peptide-2 (human, phosphothreonine 212, phosphothreonine 217 (tau 2N4R numbering); short chain biotin (SCBiot) and dPEG4 at the N-terminus; amide at the C-terminus).
T2 construct: also called pT212/pT217-tau peptide (Peptide-2)
Briefly: SPR ProteOn, peptide captured, Fab as analyte; range of n=2; Peptide-2 (pT212/pT217); Table 12 run; upper end of n=2 range. The method, then:
A subset of HFA-PT3 monoclonal antibody variants, selected based on biophysical characterization and ELISA binding to PHF, were analyzed by Surface Plasmon Resonance (SPR) with a ProteOn XPR36 for binding to the following phosphopeptides: pT212/pT217-tau peptide (Peptide-2, SEQ ID NO: 48) and pT212-tau peptide (Peptide-8, SEQ ID NO: 54). All experiments were performed at 25° C. using PBST, pH 7.4, (Bio-Rad Cat#176-2720) as both running buffer and sample dilution buffer.
Fab/peptide binding. Biotinylated peptide was captured on a neutravidin-coated NLC biosensor chip pre-conditioned with PBST, and Fab was flowed over the surface to measure kinetic parameters. Approximately 5-10 RU of peptide was captured on the chip surface by diluting peptide to 10 ng/mL in PBST and injecting over the flow channels at 30 μL/min for 100 s. Serial dilutions of PT3 Fab (1.1 nM to 90 nM) were injected at 60 μL/min for 3 minutes (association phase), followed by 300 s of buffer only (dissociation phase).
Data were double referenced by subtraction of the interspot response, and the curves generated by the buffer only injection. The chip surface was regenerated with 0.85% phosphoric acid, followed by PBST injection before the next antibody titration injection. Data processing and analysis were performed using instrument software. The data were fit using a simple Langmuir 1:1 binding model.

The target of test [3] is T1, tau phospho-peptide of the direct ELISA …. Briefly: direct ELISA, peptide coated. In a few lines: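 Tau phospho-peptide coated directly on plates at 10 ng/mL overnight, then incubated with antibodies. Bound Fab detected with HRPO-labelled anti-Fab antibody (1:10000) and TMB substrate. Binding curves generated from the read-out.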
The target of the next test is T3, Peptide-1 (human, phosphothreonine 212, phosphoserine 214, phosphothreonine 217 (tau 2N4R numbering); short chain biotin (SCBiot) and dPEG4 at the N-terminus; amide at the C-terminus).
T3 construct: also called tau peptide phosphorylated at T212/S214/T217
Briefly: SPR ProteOn, peptide captured, Fab as analyte; Peptide-1, phosphorylated at 212/214/217. As for the experimental part: (§1) The binding affinity of PT3 Fab towards each of the fourteen tau phosphopeptides shown in Table 6 was assessed by surface plasmon resonance (SPR) using a Bio-Rad ProteOn XPR36. Peptides were synthesized by standard chemical methods (New England Peptide) with short-chain biotin and a PEG4 moiety at the N-terminus. Biotinylated peptide was captured on a neutravidin-coated NLC biosensor chip and PT3 Fab was flowed over the surface to measure kinetic parameters.
(§2) All experiments were performed at 25° C. using phosphate buffered saline, pH 7.4, 0.005% Tween 20 (PBST) as both running buffer and sample dilution buffer. Prior to running samples, the NLC chip was conditioned by running PBST over the chip surface for 1 h. Approximately 5-10 RU of peptide was captured on the chip surface by diluting peptide to 10 ng/mL in PBST and injecting over the flow channels at 30 μL/min for 100 s. Serial dilutions of PT3 Fab (1.1-90 nM) were analyzed and, with the exception of Peptide-8, each concentration was measured in duplicate. After capture of peptides, the antibody titration was injected at 60 μL/min for 3 minutes (association phase), followed by 300 s of buffer only (dissociation phase).
The data were double referenced by subtraction of the interspot response and the curves generated by the buffer-only injection. […] The data were analyzed using a simple Langmuir 1:1 binding model.

A further test addresses Peptide-5 (human, phosphoserine 210, phosphoserine 214, phosphothreonine 217 (tau 2N4R numbering); SCBiot and dPEG4 at the N-terminus; amide at the C-terminus). Briefly: SPR ProteOn, peptide captured, Fab as analyte; range of n=2; lower end of n=2 range. As for the experimental part: as §1, §2
(§3) The data were double referenced by subtraction of the interspot response and the curves generated by the buffer-only injection. The chip surface was regenerated using a single injection of 0.85% phosphoric acid at 30 μL/min for 100 s contact time, followed by four injections of running buffer before the next antibody titration injection. The data processing and kinetic analysis were done using the instrument software. The data were analyzed using a simple Langmuir 1:1 binding model.

For test [4], the target named is T2, Peptide-2. Described as above. As for the experimental part:
as §1, §2, §3

Test [5] concerns the target T4, Peptide-4 (human, phosphoserine 210, phosphothreonine 217 (tau 2N4R numbering); SCBiot and dPEG4 at the N-terminus; amide at the C-terminus). The description is as above. As for the experimental part: as §1, §2, §3
A further test deals with Peptide-6 (human, phosphothreonine 217 (tau 2N4R numbering); SCBiot and dPEG4 at the N-terminus; amide at the C-terminus). The test is described as above. As for the experimental part:
as §1, §2, §3

Test [6] has as its target T4, Peptide-4. Put plainly: SPR ProteOn, peptide captured, Fab as analyte. As for the experimental part: as §1, §2, §3
The next test addresses Peptide-7 (human, phosphothreonine 212, phosphoserine 214 (tau 2N4R numbering); SCBiot and dPEG4 at the N-terminus; amide at the C-terminus). Put plainly: SPR ProteOn, peptide captured, Fab as analyte. The method, then:
as §1, §2, §3

The target in test [7] is T2, Peptide-2. Briefly: SPR ProteOn, peptide captured, Fab as analyte; range of n=2; Peptide-2 (pT212/pT217); Table 6 run; lower end of n=2 range.

T2 sequence (peptide, as listed by the source): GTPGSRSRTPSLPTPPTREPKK

B1: PT3 Fab (B187) (Fab, V domains shown)
VH: EVKLVESGGDLVKPGGSLKLSCAASGFTFSSYAMSWVRQNPEKRLEWVASISKGGNTYYPNSVKGRFTISRDNARNILYLQMSSLRSEDTALYYCARGWGDYGWFAYWGQVTLVTVSA
VL: DIKMTQSPSSMYASLGERVTITCKASQDINRYLNWFQQKPGKSPKTLIYRANRLLDGVPSRFSGSGSGQDYSLTISSLDYEDMGIYYCLQYDEFPLTFGDGTKLELK
notes: Chimeric Fab: mouse variable regions, human IgG1/kappa constant region, 6xHis tag at the C-terminus of the heavy chain; also called mouse parental Fab of PT3
In general, EC50 (read off the curve) refers to the concentration that produces a half-maximal response. One may read the Kd as a measure of binding affinity in units of concentration. Read a low Kd as higher affinity. As a reminder, the EC50 is the concentration at which the effect is half-maximal. Lower therefore signals a more potent agent. One may read the koff as the first-order rate constant of dissociation. Low readings indicate a long-lived complex, high ones a short-lived complex. A word on the kon: it is a measure of how fast the partners come together. Read a low kon as slower complex formation. On to B1, for which, in [1], the “EC50 (read off the curve)” value was approximately 0.2 nM. Besides, the equilibrium dissociation constant (Kd) in the test with Peptide-2 [2] was 0.0738 to 0.101 nM; with Peptide-1, 0.26 nM; in the test with Peptide-2 [7] it was 0.09 to 0.45 nM. Further, a half-maximal effect in [3] (EC50) was put at 0.11 nM. Moreover, the koff with Peptide-5 turned out to be 0.00569 s⁻¹; in the test with Peptide-4 [5], 0.00619 s⁻¹; with Peptide-6, 0.00606 s⁻¹; in the test with Peptide-4 [6] it was 0.00627 s⁻¹; in the test with Peptide-7, 0.00555 s⁻¹. Further, the kon with Peptide-5 is 545000 M⁻¹ s⁻¹; with Peptide-2 [4] it was 546000 M⁻¹ s⁻¹; with Peptide-4 [5] it was 922000 M⁻¹ s⁻¹; with Peptide-6, 524000 M⁻¹ s⁻¹; with Peptide-4 [6], 968000 M⁻¹ s⁻¹; with Peptide-7, 422000 M⁻¹ s⁻¹.
